Experiments:
[1] = target: T1, Fm-CGD2D, Fm-K[F1]DBJGDEVDGIDGJPK[F1]GY (compound 11 of Table 12)
T1 chain: KDXXGDEVDGIDGXPKGY

[2] = target: T2, Fm-G2D2D, Fm-K[F1]DBGDEVDGIDGPK[F1]GY (compound 10 of Table 12)
T2 chain: KDXGDEVDGIDGPKGY

B1: CPP32 protease (protein)
chain: SGISLDNSYKMDYPEMGLCIIINNKNFHKSTGMTSRSGTDVDAANLRETFRNLKYEVRNKNDLTREEIVELMRDVSKEDHSKRSSFVCVLLSHGEEGIIFGTNGPVDLKKITNFFRGDRCRSLTGKPKLFIIQACRGTELDCGIETDSGVDDDMACHKIPVEADFLYAYSTAPGYYSWRNSKDGSWFIQSLCAMLKQYADKLEFMHILTRVNRKVATEFESFSFDATFHAKKQIPCIVSMLTKELYFYH
hydrolysis rate, fold increase over compound 10 (Fm-G2D2D) [1]: the hydrolysis rate was further increased by ca. 3-fold over the above glycine residue insertion
substrate hydrolysis rate, fold increase over compound 4 (Fm-DEVD) [1]: overall at least a 9-fold increase in substrate hydrolysis rate was accomplished (compounds 4 and 11, Table 12)
hydrolysis rate, fold increase over compound 4 (Fm-DEVD) [2]: The hydrolysis rate was increased by 3-fold between compounds 4 ... and 10

From patent publication US20090325168
